Data taken from patent publication US20200281934A1, “SSTR-TARGETED CONJUGATES AND FORMULATIONS THEREOF” (TARVEDA THERAPEUTICS, INC., priority 2017, published 2020).
Read-outs that look alike come from different tables or passages of the source.

Legend:
Type in all cases: in vivo, human
GI (large bowel) NET = assay: Circulating biomarkers of neuroendocrine tumors and symptoms in a GI NET patient; settings: 18 mg
Description: (§1) The objectives of Phase 1 were to assess the safety and tolerability and determine the maximum tolerated dose and recommended Phase 2 dose of Conjugate 57 when administered intravenously on an every 3 week schedule in patients with somatostatin receptor 2 expressing advanced cancers (including gastroenteropancreatic or lung or thymus or other neuroendocrine tumors or small cell lung cancer or large cell neuroendocrine carcinoma of the lung). It also characterized both acute and chronic toxicities of Conjugate 57, characterized key pharmacokinetic parameters of Conjugate 57, DM1, and peptide ligand from Conjugate 57, assessed the potential of Conjugate 57 to induce anti-drug antibodies, and assessed preliminary anti-tumor activity by using standard tumor response criteria (RECIST 1.1) and pharmacodynamic (PDc) biomarker changes that include chromogranin A (CgA), neuron-specific enolase (NSE), and circulating tumor cells (CTCs) in the blood, and 5-hydroxyindoleacetic acid (5-HIAA) in the urine. In addition, the study explored the relationships between tumor SSTR2 expression as measured by multiple modalities (somatostatin analog radioimaging, immunohistochemistry, CTCs, or exosome analyses) and PK, efficacy, safety, anti-Conjugate 57 antibodies, and PDc biomarker changes in the blood. Phase 1 study had two parts: Phase 1 Part A (dose escalation) and Phase 1 Part B (early expansion).
A patient with well differentiated, intermediate grade GI (large bowel) NET with metastasis to lymph nodes, bone, lung, and brain was treated with Conjugate 57 at 18 mg. Their tumors progressed on all prior therapies: lanreotide, mTOR inhibitor, and/or 177Lu-DOTATATE. […] Circulating biomarkers of neuroendocrine tumors (NETs), including chromogranin A (CgA), neuron specific enolase (NSE) and circulating tumor cells (CTC), were collected and measured over time. Increased CgA is predictive of poor morphological response, progression free survival (PFS), and overall survival (OS) in pancreatic NETs. Decline in plasma concentration of NSE has been associated with response to treatment. Changes in CTCs has been associated with response to treatment in patients with NETs.

[1] = Phase 1 safety, tolerability and maximum tolerated dose; settings: patients
Description: as §1, with “Phase 1 study had two parts: Phase 1 Part A (dose escalation) and Phase 1 Part B (early expansion).” left out
(§2) Disease response was assessed by duration of response and RECIST 1.1. […]

[2] = test system: somatostatin receptor 2 expressing advanced cancers; assay: Phase 1 preliminary anti-tumor activity (RECIST 1.1, duration of response)
Description: as §1
All patients were required to have SSTR2 expressing tumors. Tumor SSTR2 expression was determined by imaging within the preceding approximately 6 months, with Octreoscan or ^68Ga-DOTATATE, ^68Ga-DOTATOC, or ^68Ga-DOTANOC.
The acetate salt of Conjugate 57 was administered to a patient as a 1 hour IV infusion once on an every 3 week schedule to escalating cohorts of 2-6 patients. Patients received Conjugate 57 treatment for 3 weeks, 6 weeks, 9 weeks, 12 weeks, 15 weeks, 18 weeks, 21 weeks, 24 weeks, 27 weeks, 30 weeks, 33 weeks, 36 weeks, 39 weeks, 42 weeks, 45 weeks, 48 weeks, 51 weeks, 54 weeks, 57 weeks, or 60 weeks. There were 7 Cohorts with the starting does of 1.0 mg and the highest dose of 25.0 mg. The doses of Conjugate 57 given to pateints were flat: 1.0 mg, 2.0 mg, 4.0 mg, 8.0 mg, 12.0 mg, 18.0 mg and 25.0 mg. Conjugate 57 concentrate for Solution for Injection is a sterile concentrated liquid containing Conjugate 57, mannitol, Polyoxyl 15 Hydroxystearate and acetate buffer. Each dosage unit contains 2.5 mg of Conjugate 57 (free-form) per mL, 50 mg/mL mannitol, 20 mg/mL Polyoxyl 15 Hydroxystearate and pH 4.0-4.8 acetate buffer in a stoppered 10 mL clear vial. Prior to administration, the product was diluted with 5% Mannitol Injection USP. […]
as §2

[3] = Phase 1 plasma pharmacokinetics of Conjugate 57 during dose escalation; settings: for AUC(0-inf) / Cmax / clearance / Vd: mean, 1 hour IV infusion; for Vd: read-out: Vz
Experimental: The acetate salt of Conjugate 57 was administered to a patient as a 1 hour IV infusion once on an every 3 week schedule to escalating cohorts of 2-6 patients. Patients received Conjugate 57 treatment for 3 weeks, 6 weeks, 9 weeks, 12 weeks, 15 weeks, 18 weeks, 21 weeks, 24 weeks, 27 weeks, 30 weeks, 33 weeks, 36 weeks, 39 weeks, 42 weeks, 45 weeks, 48 weeks, 51 weeks, 54 weeks, 57 weeks, or 60 weeks. There were 7 Cohorts with the starting does of 1.0 mg and the highest dose of 25.0 mg. The doses of Conjugate 57 given to pateints were flat: 1.0 mg, 2.0 mg, 4.0 mg, 8.0 mg, 12.0 mg, 18.0 mg and 25.0 mg. Conjugate 57 concentrate for Solution for Injection is a sterile concentrated liquid containing Conjugate 57, mannitol, Polyoxyl 15 Hydroxystearate and acetate buffer. Each dosage unit contains 2.5 mg of Conjugate 57 (free-form) per mL, 50 mg/mL mannitol, 20 mg/mL Polyoxyl 15 Hydroxystearate and pH 4.0-4.8 acetate buffer in a stoppered 10 mL clear vial. Prior to administration, the product was diluted with 5% Mannitol Injection USP. The resulting diluted Conjugate 57 formulation can be infused intravenously.
Serial PK samples were collected prior, during and up to 10 hours after the start of infusion on Day 1 of Cycle 1 and Cycle 3.
Cmax is the maximum (or peak) serum concentration of a drug after the drug has been administrated and before the administration of a second dose. Area under curve to infinity (AUCinf) is a is a theoretical measure of the total exposure of drug to the body from administration till all the drug is eliminated. Clearance (CL) is the volume of plasma cleared of drug per unit time. It is an index of how well a drug is removed irreversibly from circulation. Volume of distribution (Vz) was also measured. Vz represents the degree to which a drug is distributed in body tissue rather than the plasma.

[4] = human, plasma, patients, dose 1 mg
[5] = human, plasma, patients, dose 2 mg
[6] = human, plasma, patients, dose 4 mg
[7] = human, plasma, patients, dose 8 mg
[8] = human, plasma, patients, dose 12 mg
[9] = human, plasma, patients, dose 18 mg
[10] = human, plasma, patients, dose 25 mg

COc1cc2cc(c1Cl)N(C)C(=O)C[C@H](OC(=O)[C@H](C)N(C)C(=O)CCSSC[C@H](NC(=O)[C@@H]1CSSC[C@H](NC(=O)[C@H](N)Cc3ccccc3)C(=O)N[C@@H](Cc3ccc(O)cc3)C(=O)N[C@H](Cc3c[nH]c4ccccc34)C(=O)N[C@@H](CCCCN)C(=O)N[C@@H]([C@@H](C)O)C(=O)N1)C(N)=O)[C@]1(C)O[C@H]1[C@H](C)[C@@H]1C[C@@](O)(NC(=O)O1)[C@H](OC)/C=C/C=C(\C)C2 [Conjugate 57]
disease related symptoms of flushing (GI (large bowel) NET): disappeared after first dose
chromogranin A (CgA) level (GI (large bowel) NET; FIG. 2A): decreased over time
neuron specific enolase (NSE) level (GI (large bowel) NET; FIG. 2B): decreased over time
circulating tumor cells (CTC) level (GI (large bowel) NET; FIG. 2C): decreased over time
tolerability ([1]; 1.0-25.0 mg IV every 3 weeks): well tolerated
maximum tolerated dose (MTD) ([1]; IV infusion every 3 weeks, flat dose): 18 mg
ongoing patients with SD for 44 and 45 weeks ([2]; NET patients): 2 patients
patients with stable disease (SD) at 9 weeks ([2]; among 15 NET patients evaluable for response): 11 patients
patients with target lesion shrinkage ([2]; dose range 8-18 mg): 3 patients
patients with SD sustained for 18-45 weeks ([2]; of the 11 NET patients with SD at 9 weeks): 8 patients
AUCinf relative to efficacious exposure threshold seen in pre-clinical xenograft studies of SCLC models ([3]; 12 mg and higher dose cohorts): above efficacious exposure threshold
half-life ([3]; human, intravenous, plasma, patients, across all dose cohorts, read-out: Median t½ (half-life) (converted)): 1.7 h
AUC(0-inf) [3, 4]: 0.0146 µM·h
Cmax [3, 4]: 7.47 nM
clearance [3, 4]: 633 mL/min
Vd [3, 4]: 65 L
AUC(0-inf) [3, 5]: 0.0379 µM·h
Cmax [3, 5]: 20.5 nM
clearance [3, 5]: 583 mL/min
Vd [3, 5]: 80 L
AUC(0-inf) [3, 6]: 0.118 µM·h
Cmax [3, 6]: 74.3 nM
clearance [3, 6]: 333 mL/min
Vd [3, 6]: 60 L
AUC(0-inf) [3, 7]: 0.341 µM·h
Cmax [3, 7]: 186 nM
clearance [3, 7]: 250 mL/min
Vd [3, 7]: 37 L
AUC(0-inf) [3, 8]: 0.584 µM·h
Cmax [3, 8]: 293 nM
clearance [3, 8]: 217 mL/min
Vd [3, 8]: 33 L
AUC(0-inf) [3, 9]: 0.666 µM·h
Cmax [3, 9]: 381 nM
clearance [3, 9]: 267 mL/min
Vd [3, 9]: 36 L
AUC(0-inf) [3, 10]: 1.31 µM·h
Cmax [3, 10]: 741 nM
clearance [3, 10]: 183 mL/min
Vd [3, 10]: 50 L
